The values below come from the domain aggregation screens of Martell et al. (2025).

The nature of the series: soluble fraction after stress (log2 fold change); higher = more stays soluble; pooled small domains, quantitative proteomics. Particulars: stress: pH 4. The method, boiled down:
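Aggregation propensity here comes from the fold change in the soluble amount of each small protein domain after acid stress, measured in pooled custom libraries by high-throughput quantitative proteomics. The acid stress was pH 4. On the log2 scale, higher values mean more of the domain stayed soluble.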

Regarding “HMEPTPREIVVQQLGYRGLEVLGNAEYQFPKETQIIILKLAELISSGSVTETLEGGKLLALFRGVGINVR”, the “soluble fraction (log2)” value was -1.36.

For “HMEPVQPVMYSEFIESVERGEVVEATIQGDKIIATDRSGNRYTVVGSAKDPQLVGQLLERNVAFKFVEE”, the “soluble fraction (log2)” value is -0.971.

As for “HMEQAMIVILKENPDRRQLEFLTGWLQKQQIGIHISEGAHQTVLGLVGDATRLDIDMLKQMEIVEDVKRVQ”, the “soluble fraction (log2)” value was -0.953.

On to “HMEQGDTQQEIREKILNLLADGERHMITELKNIRTDQPIDDDKIVGKTLKTLLDEEEVYMDGSYIQLNG”, for which the “soluble fraction (log2)” value is -0.997.

Take “HMEQIGSIIKDIRKKNNLTQNEFASILGVTFQAVSKWENDKSIPDITILKDISNKFNVDLNYLISG”: the “soluble fraction (log2)” value is -0.48.

With “HMEQISVPIFTNDELVTFARSYSGELGYKIDDMAVLALYNRISNIQRLDQATTLTEVKDIVDEAVAKSE”, the “soluble fraction (log2)” value is -0.63.

With “HMEQLESAVASRTLIGQAQGVIMERYGLSAPNAFSVLSRISQDSNTKLAEVAQQIVATRRIPG”, the “soluble fraction (log2)” value was 0.0508.

For “HMEQLNKNIKFDNFLESLNFINKVSEVAEEENHHPDLKFGWGYADITIFTHAIKGLSEGDFVLAAKIDVI”, the “soluble fraction (log2)” value is -0.295.

“HMEQMSLISKKKGERIDKFLGENLGDLSRSYIQKLLKDGLILVNGKKVKANYKLNEGDQIDVEVPDP”: the “soluble fraction (log2)” value amounted to 0.407.

For the sequence “HMEQMSPYPNPSKGKIQFHNQEPMDIKVFNSLGQIVFEQRILSRAILDLSRLSPGQYIVQAGEQKNIWIK”, the “soluble fraction (log2)” value was -0.293.

Consider “HMEQPPVPSVSITAALGSAVARRLAPHGFQKMPDLVDAYRAGKLAQISGIGGTTLDLIREWLTANARQQ”, for which the “soluble fraction (log2)” value was -0.189.

Take “HMEQQEFIVPHDSEGQRLDLFLVSVLGTHSRSQIRKLIVNGHVKLENRAPRPNLPVRAGESVVVSMPEPT”: the “soluble fraction (log2)” value was -0.315.

In the case of “HMEQQSIYLENRERMTINQVIDVDAFDEETLWANLKEGAVEISGSGLHIEKLDLAEGVLIVSGIIRAFAYV”, the “soluble fraction (log2)” value is -0.423.

Consider “HMEQQVDYTQFIQDVRQGQIREVDVDRNGVINGIKRSGENFVTVIPGGYDRDLINDLVKQGVNATGEL”, for which the “soluble fraction (log2)” value came out at 0.14.

Turning to “HMEQVKFFDAKVITTPPNRLKTRYTPAGNLRPEADWLQSGAIVPVYETSGAGWYRIGYQTWASAEWMQRLD”, the “soluble fraction (log2)” value is 0.166.

On to “HMEQVSDPALLERYAKEVVAASPKAVADYQAGNAKAFQALVGQMMKRTKGKGDPALIREILQKL”, for which the “soluble fraction (log2)” value worked out at 0.143.

On to “HMEQVTMSNFLDKWGTSTKSPNAWYTSLSPMQKAEAKLLKEESGLTWNKWYEKNIYVGDGTN”, for which the “soluble fraction (log2)” value was -0.264.

As to “HMERAYGVRVSLRLDDPFRTLLGADWSRTHWFASAEERDAALLEMSRKHEFSRPGDQPALVYEKVQN”, the “soluble fraction (log2)” value was -0.471.

Regarding “HMERDVNQLTPRERDILKLIAQGLPNKMIARRLDITESTVKVHVKHMLKKMKLKSRVEAAVWVHQERI”, the “soluble fraction (log2)” value came out at 0.0307.

For the sequence “HMEREQNILQGREVVERELRRLGLAEAYTVSDIAKALKFDDEEQFLAKVGFGDIQSRQISGAIALMEKN”, the “soluble fraction (log2)” value was -0.553.

Regarding “HMERFLENAIPVLGETGLDIKSATEDFENALIRQALHLSGGNKNRAATLLGLKRTTFVEMLKRKSL”, the “soluble fraction (log2)” value is -0.398.

For the sequence “HMERFMEFVITDTQQGQRLDVVLTETTEHLGSRSHMQRSIRAGLVSIDGITTTRASTKVSSGQIIRVEPT”, the “soluble fraction (log2)” value is -0.629.

As for “HMERGEFQKLGRATLEQTLARAGKTLAEVSLKAMLETFAFAAEEDLYEALGRGRVSAAKVGETLFPALKGR”, the “soluble fraction (log2)” value is -0.942.

In the case of “HMERKMKNNISDQTTYDTDKILNFNGKGYLNGLVIPNNYQIKEEGYYVFRQVALDGREQILYFTIQDLS”, the “soluble fraction (log2)” value was -1.56.

For “HMERLSVSMGDMVVFVRDAVEAFRGLVKEKGITLTFESKVEHFYMNYDHDKVYKVVNNLLSNAVKFT”, the “soluble fraction (log2)” value was -1.31.

With “HMERLTVVPELLKRSLSEAQPLVTSARLRLEVSGGAPEDTSRAIVVGQKPPPGTRVQVGTTVIVTVQIQRP”, the “soluble fraction (log2)” value was -0.403.

Consider “HMERPYNGKQMEYHEGGVEKKETLFVEGGLSRVIQWDESGQKRSEVNISPTGVRREQYWDSSGKAIAKPS”, for which the “soluble fraction (log2)” value came out at 0.0672.

Turning to “HMERQAEAWTNRASALISLGRDEEALEAADRAIELDPRLSKAWIDRSTALSNLGRNDEANEAIQMAMFL”, the “soluble fraction (log2)” value is -0.962.

Regarding “HMERQILFTKEDLIEFGLSGGTDSRKRRDVLGHILGIGYSNSKQFLNRLNNFGVTREEFLSAIERIG”, the “soluble fraction (log2)” value was -0.454.

For “HMERTVEVVDINDVFSQFLRLYSRERAAGLLSVFKRVEHGLSWQGNPVLLERILSNVFENAIKYAA”, the “soluble fraction (log2)” value is -0.424.

Consider “HMERVIYLLNGREVPAAEIRAAEPEALTVDRFYSSENLPAEYRDRNPELVVAFTAEEPLRHY”, for which the “soluble fraction (log2)” value was -0.559.

Take “HMERVNILEKATKDIPNVEVKAFEGLSVNFARENHAQVIVRGLRAVTDFEYELQMAQTNRVLAPDVDTVF”: the “soluble fraction (log2)” value was 0.317.

As for “HMERYSVQVGSFRNMRYAERLKQELQGEDFPAYIEKSGEFNRVRVGKGLTLEEATQLEQVLRKSGYQTVIV”, the “soluble fraction (log2)” value is 0.0226.

For “HMESIGANIRRLRKERNMSQDELARKAFTNRSNINRYESGKMVPSADTTEKIEEALGVPAGTLAQ”, the “soluble fraction (log2)” value is -0.638.

For “HMESKDIRYVQLQTVSPEEVLQALALIMPRSDVYVEPTGKLVVLHGSKETLDRAEELILALDNAV”, the “soluble fraction (log2)” value was -0.641.

On to “HMESKITTAEAAAILNASPQFVRVAMQRGILNIGIAMQMPNSNKWTYNISPKLLGEYSGKNIEYELERLR”, for which the “soluble fraction (log2)” value is -0.692.

Consider “HMESRTQVYDFYKDLFREKRRPLRAEEMLSALKSQRGIVGVNQYQIIEQHGIVRLSGSGRSALYWDTDLGS”, for which the “soluble fraction (log2)” value is -0.746.

Regarding “HMESSREVSFSEFMKQIDSGRVSSVKLDGETIYVRNSDGTSYKVIQPLGTDLIGVLRKSDIDVQAIKQ”, the “soluble fraction (log2)” value amounted to 0.165.

As for “HMESYNIVEQVLTKKILSKGNTLAKLSNEFDGLVMLVIRGDEFIIPNGETLLFEKDILVINNGP”, the “soluble fraction (log2)” value was -1.2.

Turning to “HMESYTGLAVTEDDDGWSNVRSGNSTSYSILFKIYAGEKFNILSNDGKWSYIDFNGRKGYIHNSIIRKY”, the “soluble fraction (log2)” value was 0.31.

Consider “HMETAADLLAAAKENPARFGILASEGRFGLGYMNDDLLDPDNLVAISREEADDLRGLGVYFHNLD”, for which the “soluble fraction (log2)” value is -0.308.

For the sequence “HMETALYVEDLDRAVRFYESVMGLNTMSRGVRLVALDAGEGTVLLLFLRGATTSGASFEGGWIPPH”, the “soluble fraction (log2)” value was -0.257.

Take “HMETDNEKVRTAFQNGLAAYREQDWDRAEAAFGAVLAEMPEDRPSLVYLERIAHLRKKAPPGAWDGVWI”: the “soluble fraction (log2)” value is -1.07.

As to “HMETENLSPREREILEYIVKGYSYKMIAADLNIATETVRSHIKKIYKKLQVNSATEAVYKYSN”, the “soluble fraction (log2)” value is -0.424.

Consider “HMETEQVEMIRVVGMHVDEAKKALLDLGLSPEIKYEESSSYDAGTVLRASVQDGLMIDKGTNIVLTVAEA”, for which the “soluble fraction (log2)” value was -0.549.

On to “HMETFEKIKELAKKRGKALGQVEEDLGYGRNTLYKIKNSTPNAERIAEIANYFNVSTDYLLGRTDNPTIAK”, for which the “soluble fraction (log2)” value was found to be 0.104.

For “HMETFNMTQKEITRLRVINQAIDKVITIREAAELLGLSERQVIRLKGGVEKFGPAFIIHKNRGRKP”, the “soluble fraction (log2)” value was -0.265.

As for “HMETGLSNYEFKRIREQAEALLSDGQVRRINDLVDSIKNENAEKVIRVIRFLIDTEELILEDDRVSAKKS”, the “soluble fraction (log2)” value was -1.42.

For “HMETIVGIDPDSKKKIVLKKGIKGRPDYLSFNKKNYSLPSELKEKNVSLEQALEIINDKKSNKKKIK”, the “soluble fraction (log2)” value was 0.201.

As for “HMETLSKVGSTGSEVRQIQTKLKNWGYFSDKVDGIYGEKTRAAVVWFQKKNGLTADGIAGPATLKAMGIYT”, the “soluble fraction (log2)” value is at least 0.43.
